Experimental findings from the supplement of paper PMC5998384 are described below.

In data set [1] the test system is HeLa Kyoto. The data set can be described thus: melting temperature (median over replicates), in situ; higher = more thermally stable.
Data set [2] concerns HeLa Kyoto. The data set can be described thus: solubility change mitosis vs G1/S (difference of NP-40 vs SDS log2 ratios) (log2 ratio difference); higher = more soluble in mitosis.
Data set [3] has as its system HeLa Kyoto. The data set can be described thus: solubility in G1/S (NP-40 vs SDS abundance) (log2 ratio); higher = more soluble. The following applies: cell cycle stage: G1/S.
Data set [4] concerns HeLa Kyoto. The data set is described as follows: thermal stability score vs G1/S (z-score of summed log2 fold changes over temperatures); higher = more thermally stable than in G1/S.
[5] abbreviates: cell cycle stage: early G1 (4.5 h after nocodazole release).
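Wherever melting temperature (median over replicates), in situ is given: HeLa Kyoto cells synchronized by double thymidine or nocodazole block, proteins quantified by TMT10plex mass spectrometry, three independent biological replicates.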
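Wherever solubility change mitosis vs G1/S (difference of NP-40 vs SDS log2 ratios) is given: synchronized HeLa Kyoto cells (double thymidine block for G1/S, nocodazole release for mitosis), protein amounts in NP-40 versus SDS lysates quantified by mass spectrometry, three biological replicates.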
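Wherever solubility in G1/S (NP-40 vs SDS abundance) is given: HeLa Kyoto cells arrested at G1/S by double thymidine block, proteins quantified by TMT10plex mass spectrometry in mild NP-40 versus SDS extracts, three biological replicates.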
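Wherever thermal stability score vs G1/S (z-score of summed log2 fold changes over temperatures) is given: synchronized HeLa Kyoto cells, proteins quantified by TMT10plex mass spectrometry, three biological replicates, mitosis taken 0.5 h after nocodazole release, G1/S directly after double thymidine block.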

In the case of “MDLSELERDNTGRCRLSSPVPAVCRKEPCVLGVDEAGRGPVLGPMVYAICYCPLPRLADLEALKVADSKTLLESERERLFAKMEDTDFVGWALDVLSPNLISTSMLGRVKYNLNSLSHDTATGLIQYALDQGVNVTQVFVDTVGMPETYQARLQQSFPGIEVTVKAKADALYPVVSAASICAKVARDQAVKKWQFVEKLQDLDTDYGSGYPNDPKTKAWLKEHVEPVFGFPQFVRFSWRTAQTILEKEAEDVIWEDSASENQEGLRKITSYFLNEGSQARPRSSHRYFLERGLESATSL [RNASEH2A]”, the melting temperature in the data set with HeLa Kyoto [1] (cell cycle stage: G1/S) amounted to 49.9 °C; with HeLa Kyoto [1] (cell cycle stage: mitosis) it was 50.5 °C. Further, the “solubility change mitosis (log2)” value with HeLa Kyoto [2] is -0.012. Moreover, the “solubility in G1/S (log2)” value in the data set with HeLa Kyoto [3] worked out at 0.206. The thermal stability score is 0.166 with HeLa Kyoto [4] (setting [5]) and 0.422 in the data set on HeLa Kyoto [4] (cell cycle stage: mitosis).

Regarding “MDMLDPGLDPAASATAAAAASHDKGPEAEEGVELQEGGDGPGAEEQTAVAITSVQQAAFGDHNIQYQFRTETNGGQVTYRVVQVTDGQLDGQGDTAGAVSVVSTAAFAGGQQAVTQVGVDGAAQRPGPAAASVPPGPAAPFPLAVIQNPFSNGGSPAAEAVSGEARFAYFPASSVGDTTAVSVQTTDQSLQAGGQFYVMMTPQDVLQTGTQRTIAPRTHPYSPKIDGTRTPRDERRRAQHNEVERRRRDKINNWIVQLSKIIPDCNADNSKTGASKGGILSKACDYIRELRQTNQRMQETFKEAERLQMDNELLRQQIEELKNENALLRAQLQQHNLEMVGEGTRQ [USF2]”, the values for the melting temperature in the data set on HeLa Kyoto [1] (cell cycle stage: G1/S) and with HeLa Kyoto [1] (cell cycle stage: mitosis) were 54 °C and 54.6 °C, respectively. Also, in the data set with HeLa Kyoto [2], the “solubility change mitosis (log2)” value turned out to be 0.142. For the same sequence, in the data set on HeLa Kyoto [3], the “solubility in G1/S (log2)” value was -0.0293. The thermal stability score in the data set with HeLa Kyoto [4] (setting [5]) is -0.00434; with HeLa Kyoto [4] (cell cycle stage: mitosis), -0.248.

As to “MDPARKAGAQAMIWTAGWLLLLLLRGGAQALECYSCVQKADDGCSPNKMKTVKCAPGVDVCTEAVGAVETIHGQFSLAVRGCGSGLPGKNDRGLDLHGLLAFIQLQQCAQDRCNAKLNLTSRALDPAGNESAYPPNGVECYSCVGLSREACQGTSPPVVSCYNASDHVYKGCFDGNVTLTAANVTVSLPVRGCVQDEFCTRDGVTGPGFTLSGSCCQGSRCNSDLRNKTYFSPRIPPLVRLPPPEPTTVASTTSVTTSTSAPVRPTSTTKPMPAPTSQTPRQGVEHEASRDEEPRLTGGAAGHQDRSNSGQYPAKGGPQQPHNKGCVAPTAGLAALLLAVAAGVLL [LYPD3]”, the melting temperature in the data set with HeLa Kyoto [1] (cell cycle stage: G1/S) was 56.9 °C. Besides, the “solubility change mitosis (log2)” value in the data set with HeLa Kyoto [2] was -0.185. Besides, in the data set with HeLa Kyoto [3], the “solubility in G1/S (log2)” value is -0.405. Further, the thermal stability score in the data set on HeLa Kyoto [4] (setting [5]) was -2.56; in the data set on HeLa Kyoto [4] (cell cycle stage: mitosis), 3.5.

Take “MDPLGDTLRRLREAFHAGRTRPAEFRAAQLQGLGRFLQENKQLLHDALAQDLHKSAFESEVSEVAISQGEVTLALRNLRAWMKDERVPKNLATQLDSAFIRKEPFGLVLIIAPWNYPLNLTLVPLVGALAAGNCVVLKPSEISKNVEKILAEVLPQYVDQSCFAVVLGGPQETGQLLEHRFDYIFFTGSPRVGKIVMTAAAKHLTPVTLELGGKNPCYVDDNCDPQTVANRVAWFRYFNAGQTCVAPDYVLCSPEMQERLLPALQSTITRFYGDDPQSSPNLGRIINQKQFQRLRALLGCGRVAIGGQSDESDRYIAPTVLVDVQEMEPVMQEEIFGPILPIVNVQSLDEAIEFINRREKPLALYAFSNSSQVVKRVLTQTSSGGFCGNDGFMHMTLASLPFGGVGASGMGRYHGKFSFDTFSHHRACLLRSPGMEKLNALRYPPQSPRRLRMLLVAMEAQGCSCTLL [ALDH3B1]”: the melting temperature with HeLa Kyoto [1] (cell cycle stage: G1/S) was determined as 52.2 °C; in the data set on HeLa Kyoto [1] (cell cycle stage: mitosis), 51.8 °C. In the data set on HeLa Kyoto [2], the “solubility change mitosis (log2)” value is -0.152. In addition, the “solubility in G1/S (log2)” value in the data set on HeLa Kyoto [3] was determined as 0.252. Also, the thermal stability score in the data set on HeLa Kyoto [4] (setting [5]) is 0.958; in the data set on HeLa Kyoto [4] (cell cycle stage: mitosis), 1.14.

As for “MDPQRSPLLEVKGNIELKRPLIKAPSQLPLSGSRLKRRPDQMEDGLEPEKKRTRGLGATTKITTSHPRVPSLTTVPQTQGQTTAQKVSKKTGPRCSTAIATGLKNQKPVPAVPVQKSGTSGVPPMAGGKKPSKRPAWDLKGQLCDLNAELKRCRERTQTLDQENQQLQDQLRDAQQQVKALGTERTTLEGHLAKVQAQAEQGQQELKNLRACVLELEERLSTQEGLVQELQKKQVELQEERRGLMSQLEEKERRLQTSEAALSSSQAEVASLRQETVAQAALLTEREERLHGLEMERRRLHNQLQELKGNIRVFCRVRPVLPGEPTPPPGLLLFPSGPGGPSDPPTRLSLSRSDERRGTLSGAPAPPTRHDFSFDRVFPPGSGQDEVFEEIAMLVQSALDGYPVCIFAYGQTGSGKTFTMEGGPGGDPQLEGLIPRALRHLFSVAQELSGQGWTYSFVASYVEIYNETVRDLLATGTRKGQGGECEIRRAGPGSEELTVTNARYVPVSCEKEVDALLHLARQNRAVARTAQNERSSRSHSVFQLQISGEHSSRGLQCGAPLSLVDLAGSERLDPGLALGPGERERLRETQAINSSLSTLGLVIMALSNKESHVPYRNSKLTYLLQNSLGGSAKMLMFVNISPLEENVSESLNSLRFASKVNQCVIGTAQANRK [KIFC1]”, the figures for the melting temperature in the data set with HeLa Kyoto [1] (cell cycle stage: G1/S) and with HeLa Kyoto [1] (cell cycle stage: mitosis) were 47.4 °C and 48.8 °C, respectively. Further, the “solubility change mitosis (log2)” value in the data set with HeLa Kyoto [2] came to 0.12. Moreover, the “solubility in G1/S (log2)” value in the data set with HeLa Kyoto [3] stood at 0.0107. The thermal stability score came to 3.16 in the data set on HeLa Kyoto [4] (setting [5]) and 4.4 in the data set on HeLa Kyoto [4] (cell cycle stage: mitosis).

For the sequence “MDQEPVGGVERGEAVAASGAAAAAAFGESAGQMSNERGFENVELGVIGKKKKVPRRVIHFVSGETMEEYSTDEDEVDGLEKKDVLPTVDPTKLTWGPYLWFYMLRAATSTLSVCDFLGEKIASVLGISTPKYQYAIDEYYRMKKEEEEEEEENRMSEEAEKQYQQNKLQTDSIVQTDQPETVISSSFVNVNFEMEGDSEVIMESKQNPVSVPP [FAM177A1]”, the melting temperature in the data set with HeLa Kyoto [1] (cell cycle stage: G1/S) came to 54.5 °C; with HeLa Kyoto [1] (cell cycle stage: mitosis) it was 56.5 °C. In the data set with HeLa Kyoto [2], the “solubility change mitosis (log2)” value was -0.0492. Besides, the “solubility in G1/S (log2)” value in the data set on HeLa Kyoto [3] is 0.0523. The results for the thermal stability score with HeLa Kyoto [4] (setting [5]) and in the data set with HeLa Kyoto [4] (cell cycle stage: mitosis) were 0.512 and -0.398, respectively.
